This is an account of results in patent US7076372 (Takeda / Millennium, dated 2006).

This series deals with the molecule itself. Put plainly: X-ray crystal structure, two MvaS molecules in the asymmetric unit.

B1: MvaS from E. faecalis (HMG-CoA Synthase), full-length with non-cleavable carboxy-terminal six histidine tag, seleno-methionine labeled (enzyme)
chain: MTIGIDKISFFVPPYYIDMTALAEARNVDPGKFHIGIGQDQMAVNPISQDIVTFAANAAEAILTKEDKEAIDMVIVGTESSIDESKAAAVVLHRLMGIQPFARSFEIKEACYGATAGLQLAKNHVALHPDKKVLVVAADIAKYGLNSGGEPTQGAGAVAMLVASEPRILALKEDNVMLTQDIYDFWRPTGHPYPMVDGPLSNETYIQSFAQVWDEHKKRTGLDFADYDALAFHIPYTKMGKKALLAKISDQTEAEQERILARYEESIVYSRRVGNLYTGSLYLGLISLLENATTLTAGNQIGLFSYGSGAVAEFFTGELVAGYQNHLQKETHLALLDNRTELSIAEYEAMFAETLDTDIDQTLEDELKYSISAINNTVRSYRNKGHHHHHH
modifications: selenomethionine (MSE) in place of methionine, 100% incorporation by mass spectrometry
notes: Crystallised as a complex with the small molecule HMG-CoA; There are two MvaS molecules in the asymmetric unit, described as a dimer; Coordinates lack residues 1 and 384-391 (molecule A) and residues 1 and 388-391 (molecule B); also called MvaS Ef
Regarding B1, the binding result was “binds”.
